In article PMC3438448:

What was measured:
[1] = target: microtubules (taxol-stabilized, α/β-tubulin) (UniProt P02554)
axonemal microtubules = experiment: single-molecule microtubule release assay (TIRF); as a6, perfused with 5 mM ATP in the presence of 800 nM Lis1; durations of attachment fitted by a one-phase exponential decay

microtubules (taxol-stabilized, α/β-tubulin), sequence (chain, as listed by the source, chain 1 of 2): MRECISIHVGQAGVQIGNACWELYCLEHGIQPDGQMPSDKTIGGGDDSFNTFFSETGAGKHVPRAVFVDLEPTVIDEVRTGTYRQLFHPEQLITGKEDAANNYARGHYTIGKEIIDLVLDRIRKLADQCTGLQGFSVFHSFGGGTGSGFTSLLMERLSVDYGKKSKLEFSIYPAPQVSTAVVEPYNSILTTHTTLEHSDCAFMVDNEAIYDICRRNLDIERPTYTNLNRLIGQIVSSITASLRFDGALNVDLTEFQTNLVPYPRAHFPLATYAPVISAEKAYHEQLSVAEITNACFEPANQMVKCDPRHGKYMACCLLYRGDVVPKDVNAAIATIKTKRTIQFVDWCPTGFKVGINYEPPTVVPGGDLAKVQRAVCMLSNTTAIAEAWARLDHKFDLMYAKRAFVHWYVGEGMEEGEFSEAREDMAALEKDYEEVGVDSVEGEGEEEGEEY
microtubules (taxol-stabilized, α/β-tubulin), sequence (P02554 whole entry, chain 2 of 2, the tested form may be a part): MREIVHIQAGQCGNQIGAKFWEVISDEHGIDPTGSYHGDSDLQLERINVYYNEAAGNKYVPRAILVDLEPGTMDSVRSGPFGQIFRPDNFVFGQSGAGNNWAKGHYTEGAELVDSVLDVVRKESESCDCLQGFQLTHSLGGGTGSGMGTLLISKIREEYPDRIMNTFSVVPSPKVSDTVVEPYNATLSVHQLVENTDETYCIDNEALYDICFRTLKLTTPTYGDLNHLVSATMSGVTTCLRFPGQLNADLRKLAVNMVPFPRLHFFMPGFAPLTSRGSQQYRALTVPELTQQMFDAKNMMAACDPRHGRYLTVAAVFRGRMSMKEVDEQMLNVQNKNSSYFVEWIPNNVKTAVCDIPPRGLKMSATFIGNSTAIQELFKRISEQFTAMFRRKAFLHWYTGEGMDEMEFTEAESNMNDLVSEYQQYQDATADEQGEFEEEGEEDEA

GST-dynein_(331 kDa), P36022 1-4092
Km(MT) of the microtubule-stimulated ATPase activity, with 140 nM Lis1 [1]: 0.2 µM
Km(MT) of the microtubule-stimulated ATPase activity, without Lis1 [1]: 0.09 µM

monomeric dynein_(331 kDa) (domain or fragment)
off-rate (decay constant) of microtubule attachments after ATP addition, with 800 nM Lis1 and 5 mM ATP (axonemal microtubules): 0.162 s⁻¹
off-rate (decay constant) of rebinding events, with Lis1 and ATP (axonemal microtubules): 0.23 s⁻¹
